Some results are limits rather than exact numbers.

The target of test [1] is His-mAKAP 1286–1833. Nature of the test: SPR. In general terms: SPR reads the build-up and loss of mass on a sensor chip optically.
Test [2] concerns the target myc-tagged full-length mAKAPβ with an internal deletion of residues 1257–1886. Nature of the test: co-IP.

With “His-RSK3, full-length, ERK-phosphorylated (from UniProt Q15349 1-733) (enzyme)”, the fold decrease of binding affinity against unphosphorylated RSK3 in test [1] worked out at 5 fold.

The substance “HA-tagged RSK3 (type 3 p90 ribosomal S6 kinase) (from UniProt Q15349 1-733) (enzyme)” came in with a percent reduction of RSK3 binding against full-length mAKAPβ in test [2] greater than 85%.

In turn, “His-RSK3, full-length, ERK and PDK1-phosphorylated (from UniProt Q15349 1-733) (enzyme)” had a fold decrease of binding affinity against unphosphorylated RSK3 in test [1] of 8 fold.

For the origin of these results see paper PMC3537852.
